Results taken from US20170066831A1 (Janssen / Centocor, published 2017).
Positions count from the first letter of the chain named. Values belong to the binder of their own block, whether it stands above or below them.

Legend:
[1] = target: T1, human ST2L, full length, on cells (human, UniProt Q01638 19-556); assay: cell-based or functional assay
T1 sequence: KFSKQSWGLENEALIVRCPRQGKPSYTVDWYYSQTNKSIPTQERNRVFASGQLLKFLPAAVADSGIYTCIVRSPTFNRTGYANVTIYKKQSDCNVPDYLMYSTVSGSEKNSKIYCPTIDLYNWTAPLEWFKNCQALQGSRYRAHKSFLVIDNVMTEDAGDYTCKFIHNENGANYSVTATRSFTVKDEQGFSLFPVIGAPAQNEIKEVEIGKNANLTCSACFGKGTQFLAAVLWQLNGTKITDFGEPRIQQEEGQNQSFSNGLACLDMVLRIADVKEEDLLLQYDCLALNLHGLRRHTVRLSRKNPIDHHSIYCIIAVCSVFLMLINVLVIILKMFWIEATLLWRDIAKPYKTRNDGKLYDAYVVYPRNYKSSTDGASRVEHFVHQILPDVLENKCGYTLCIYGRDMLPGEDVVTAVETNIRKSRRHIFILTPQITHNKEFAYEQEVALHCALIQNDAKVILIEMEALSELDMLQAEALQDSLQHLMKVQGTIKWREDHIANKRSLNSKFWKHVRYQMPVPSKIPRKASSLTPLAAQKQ

[2] = target: T2, human ST2L extracellular domain with C-terminal His6 tag (human, UniProt Q01638 19-328); assay: SPR, mAb captured, ST2L-ECD in solution
T2 construct: also called huST2L-ECD; ST2L-ECD
T2 sequence: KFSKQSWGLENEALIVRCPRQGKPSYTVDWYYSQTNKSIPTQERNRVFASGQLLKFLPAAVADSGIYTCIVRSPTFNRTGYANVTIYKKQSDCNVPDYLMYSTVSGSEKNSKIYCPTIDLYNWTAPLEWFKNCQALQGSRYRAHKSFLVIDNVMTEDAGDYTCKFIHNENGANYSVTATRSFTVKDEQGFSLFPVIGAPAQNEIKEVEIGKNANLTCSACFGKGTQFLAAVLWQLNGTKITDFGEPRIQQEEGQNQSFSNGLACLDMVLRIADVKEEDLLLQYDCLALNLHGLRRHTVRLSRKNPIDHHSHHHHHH

[3] = target: T3, cynomolgus (Macaca fascicularis) ST2L extracellular domain with C-terminal His6 tag (Macaca fascicularis (cynomolgus), UniProt Q01638 19-321 (human entry)); assay: SPR, mAb captured, ST2L-ECD in solution
T3 construct: also called cyno ST2L-ECD; cynoST2L-ECD
T3 chain: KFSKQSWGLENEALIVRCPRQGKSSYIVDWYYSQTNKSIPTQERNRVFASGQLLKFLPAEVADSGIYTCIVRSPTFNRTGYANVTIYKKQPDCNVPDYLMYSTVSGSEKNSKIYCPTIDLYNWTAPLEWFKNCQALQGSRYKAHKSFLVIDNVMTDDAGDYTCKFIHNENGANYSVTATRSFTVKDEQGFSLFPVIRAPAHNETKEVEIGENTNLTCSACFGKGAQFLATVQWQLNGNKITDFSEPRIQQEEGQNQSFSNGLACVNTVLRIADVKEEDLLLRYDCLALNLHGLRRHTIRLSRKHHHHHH

[4] = target: T2, human ST2L extracellular domain with …; assay: RLB ELISA: biotinylated IL-33 on coated huST2L-ECD, antibody titrated
Procedure: 96-well plate was coated with 50 μl of 4 μg/ml human ST2L-ECD (amino acids 19-328 of SEQ ID NO: 1) or 2 μg/ml cyno ST2L-ECD (amino acids 19-321 of SEQ ID NO: 2) having C-terminal His₆ tag in bicarbonate buffer at 4° C. for 16 hrs. All subsequent steps were performed at room temperature. Plate was blocked with 200 μl blocking buffer, and was washed 3 times with 300 μl of wash buffer containing PBS+0.05% Tween. 30 μl of various dilutions of anti-ST2L mAbs were added to the wells and incubated for 1 hour. For human receptor-ligand binding assay 20 μl of biotinylated human IL-33 (residues 112-270 of SEQ ID NO: 3) was added at 100 ng/ml final concentration and incubated for 30 minutes. For cyno receptor-ligand binding assay 20 μl of biotinylated cyno IL-33 (residues 112-269 of SEQ ID NO: 4) was added at 200 ng/ml final concentration and incubated for 30 minutes. The plate was washed 3 times with 300 μl of wash buffer. 50 μl of 0.2 μg/ml Streptavidin-HRP (Jackson Immunoresearch) was added and incubated for 30 min. The plate was washed 3 times with 300 μl of wash buffer containing PBS+0.05% Tween. 50 μl of TMB substrate (EMD Biosciences) was added to each well. Reaction was stopped by the addition of 100 μl of 0.2N Sulfuric Acid. OD450 were measured using Envision plate reader (Perkin Elmer).

[5] = target: T2, human ST2L extracellular domain with …; assay: ProteOn SPR, mAb captured, ST2L-ECD in solution
Procedure: (§1) The affinities were analyzed by ProteOn. The experiments were performed at 25° C. using ProteOn's PBS-T-E buffer (PBS, 0.005% P20 and 3 mM EDTA) as running buffer. […] Mab capture was followed by injection of ST2L-ECD from 0.024-15 nM (5-fold dilutions) for 4 min (200 μL at 50 μL/min). The dissociation was monitored for 30 minutes for all reaction. Regeneration was performed using two 15 sec pulses of 10 mM glycine pH1.5. The data was fitted to a 1:1 with baseline drift model.
(§2) Association rates for the samples are fast, the langmuir with mass transfer model was used for curve fitting and estimation of Affinity. All of the samples had faster off rates than the parental clone and control Mab. The difference in off rate was the primary contributor to the lower affinity of the HFA variants when compared to the parent antibody.

[6] = target: T3, cynomolgus (Macaca fascicularis) ST2L …; assay: ProteOn SPR, mAb captured, ST2L-ECD in solution
Procedure: as §1, §2

- RGA IC50 [1]: 0.6 µg/mL
- Kd [2]: 0.016 nM
- koff [2]: 9.53e-05 s⁻¹
- kon [2]: 5.8e+06 M⁻¹ s⁻¹
- Kd [3]: 9 pM
- koff [3]: 0.00014 s⁻¹
- kon [3]: 1.6e+07 M⁻¹ s⁻¹
- IC50 [4]: 0.39 µg/mL
B1: STLM220 (antibody, V domains shown)
VH: EVQLLESGGGLVQPGGSLRLSCAASGFTFSFYDMFWVRQAPGKGLEWVSDIRGEGGGTAYADSVKGRFTISRDNSKNTLYLQMNSLRAEDTAVYYCARDPWSTEGSFFVLDYWGQGTLVTVSS
VL: EIVLTQSPATLSLSPGERATLSCRASQSVDDDLAWYQQKPGQAPRLLIYDASNRATGIPARFSGSGSGTDFTLTISSLEPEDFAVYYCQQYIGAPITFGQGTKVEIK
notes: frameworks VH3-23 / Vk-L6

- Kd [5]: 0.0473 nM
- koff [5]: 0.000967 s⁻¹
- kon [5]: 2.04e+07 M⁻¹ s⁻¹
- Kd [6]: 0.111 nM
- koff [6]: 0.00656 s⁻¹
- kon [6]: 5.88e+07 M⁻¹ s⁻¹
B2: STLM203 (antibody, V domains shown)
VH: EVQLVQSGAEVKKPGATVKISCKVSAFNIKDDYMHWVQQAPGKGLEWMGRIDPAIGNTEYAEKFQGRVTITADTSTDTAYMELSSLRSEDTAVYYCATGDFYAMDYWGQGTLVTVSS
VL: DIQMTQSPSSLSASVGDRVTITCITNTDIDDVIHWYQQKPGKAPKLLIYEGNTLRPGVPSRFSGSGSGTDFTLTISSLQPEDFATYYCLQSDNMLTFGQGTKLEIK
notes: C2494 HFA mAb: VH STLH194 + VL STLL274 (O12)

- Kd [5]: 0.0414 nM
- koff [5]: 0.000897 s⁻¹
- kon [5]: 2.17e+07 M⁻¹ s⁻¹
- Kd [6]: 0.0845 nM
- koff [6]: 0.00657 s⁻¹
- kon [6]: 7.78e+07 M⁻¹ s⁻¹
B3: STLM199 (antibody, V domains shown)
VH: B2 VH
VL: EIVMTQSPATLSVSPGERATLSCITNTDIDDVIHWYQQKPGQAPRLLIYEGNTLRPGIPARFSGSGSGTEFTLTISSLQSEDFAVYYCLQSDNMLTFGQGTKLEIK
notes: C2494 HFA mAb: VH STLH194 + VL STLL278 (L2)

- Kd [5]: 0.292 nM
- koff [5]: 0.0247 s⁻¹
- kon [5]: 8.46e+07 M⁻¹ s⁻¹
- Kd [6]: 0.666 nM
- koff [6]: 0.0666 s⁻¹
- kon [6]: 1e+08 M⁻¹ s⁻¹
B4: STLM191 (antibody, V domains shown)
VH: B2 VH with E1Q, T17S, I20V, Q38R, E62P, G66D, I70M, A72E
VL: B2 VL with S10T, D70E, E81D
notes: C2494 HFA mAb: VH STLH195 + VL STLL276 (L12)

- Kd [5]: 0.534 nM
- koff [5]: 0.0534 s⁻¹
- kon [5]: 1e+08 M⁻¹ s⁻¹
- Kd [6]: 1.02 nM
- koff [6]: 0.102 s⁻¹
- kon [6]: 1e+08 M⁻¹ s⁻¹
B5: STLM190 (antibody, V domains shown)
VH: B2 VH with E1Q, T17S, I20V, Q38R, E62P, G66D, I70M, A72E
VL: B2 VL with M4L, S10F, D70E
notes: C2494 HFA mAb: VH STLH195 + VL STLL277 (L8)

- Kd [5]: 0.0529 nM
- koff [5]: 0.00119 s⁻¹
- kon [5]: 2.24e+07 M⁻¹ s⁻¹
- Kd [6]: 0.134 nM
- koff [6]: 0.0104 s⁻¹
- kon [6]: 7.75e+07 M⁻¹ s⁻¹
B6: STLM202 (antibody, V domains shown)
VH: B2 VH
VL: B2 VL with L11V
notes: C2494 HFA mAb: VH STLH194 + VL STLL275 (L5)

- Kd [5]: 0.271 nM
- koff [5]: 0.00673 s⁻¹
- kon [5]: 2.49e+07 M⁻¹ s⁻¹
- Kd [6]: 0.719 nM
- koff [6]: 0.0719 s⁻¹
- kon [6]: 1e+08 M⁻¹ s⁻¹
B7: STLM195 (antibody, V domains shown)
VH: B2 VH with E1Q, T17S, I20V, Q38R, E62P, G66D, I70M, A72E
VL: B2 VL with L73F, F83I
notes: C2494 HFA mAb: VH STLH195 + VL STLL272 (O18)

- Kd [5]: 0.703 nM
- koff [5]: 0.0703 s⁻¹
- kon [5]: 1e+08 M⁻¹ s⁻¹
- Kd [6]: 1.9 nM
- koff [6]: 0.19 s⁻¹
- kon [6]: 1e+08 M⁻¹ s⁻¹
B8: STLM194 (antibody, V domains shown)
VH: B2 VH with E1Q, T17S, I20V, Q38R, E62P, G66D, I70M, A72E
VL: B2 VL with A43V, F83V
notes: C2494 HFA mAb: VH STLH195 + VL STLL273 (A20)

- Kd [5]: 0.42 nM
- koff [5]: 0.00885 s⁻¹
- kon [5]: 2.11e+07 M⁻¹ s⁻¹
- Kd [6]: 0.999 nM
- koff [6]: 0.0999 s⁻¹
- kon [6]: 1e+08 M⁻¹ s⁻¹
B9: STLM192 (antibody, V domains shown)
VH: B2 VH with E1Q, T17S, I20V, Q38R, E62P, G66D, I70M, A72E
VL: B2 VL with L11V
notes: C2494 HFA mAb: VH STLH195 + VL STLL275 (L5)

- Kd [5]: 0.0885 nM
- koff [5]: 0.00162 s⁻¹
- kon [5]: 1.83e+07 M⁻¹ s⁻¹
- Kd [6]: 0.232 nM
- koff [6]: 0.00688 s⁻¹
- kon [6]: 2.97e+07 M⁻¹ s⁻¹
B10: STLM197 (antibody, V domains shown)
VH: B2 VH
VL: B2 VL with M94L
notes: C2494 HFA mAb: VH STLH194 (IGHV1-f*01) + VL STLL280 (O12b)

- Kd [5]: 0.0608 nM
- koff [5]: 0.00143 s⁻¹
- kon [5]: 2.35e+07 M⁻¹ s⁻¹
- Kd [6]: 0.134 nM
- koff [6]: 0.011 s⁻¹
- kon [6]: 8.23e+07 M⁻¹ s⁻¹
B11: STLM200 (antibody, V domains shown)
VH: B2 VH
VL: B2 VL with M4L, S10F, D70E
notes: C2494 HFA mAb: VH STLH194 + VL STLL277 (L8)

- Kd [5]: 0.267 nM
- koff [5]: 0.0127 s⁻¹
- kon [5]: 4.77e+07 M⁻¹ s⁻¹
- Kd [6]: 0.932 nM
- koff [6]: 0.0932 s⁻¹
- kon [6]: 1e+08 M⁻¹ s⁻¹
B12: STLM193 (antibody, V domains shown)
VH: B2 VH with E1Q, T17S, I20V, Q38R, E62P, G66D, I70M, A72E
VL: B2 VL
notes: C2494 HFA mAb: VH STLH195 + VL STLL274 (O12)

- Kd [5]: 0.0401 nM
- koff [5]: 0.000695 s⁻¹
- kon [5]: 1.73e+07 M⁻¹ s⁻¹
- Kd [6]: 0.1 nM
- koff [6]: 0.00404 s⁻¹
- kon [6]: 4.04e+07 M⁻¹ s⁻¹
B13: STLM205 (antibody, V domains shown)
VH: B2 VH
VL: B2 VL with L73F, F83I
notes: C2494 HFA mAb: VH STLH194 + VL STLL272 (O18)

- Kd [5]: 0.0484 nM
- koff [5]: 0.000852 s⁻¹
- kon [5]: 1.76e+07 M⁻¹ s⁻¹
- Kd [6]: 0.116 nM
- koff [6]: 0.0041 s⁻¹
- kon [6]: 3.55e+07 M⁻¹ s⁻¹
B14: STLM201 (antibody, V domains shown)
VH: B2 VH
VL: B2 VL with S10T, D70E, E81D
notes: C2494 HFA mAb: VH STLH194 + VL STLL276 (L12)

- Kd [5]: 0.0813 nM
- koff [5]: 0.00241 s⁻¹
- kon [5]: 2.97e+07 M⁻¹ s⁻¹
- Kd [6]: 0.205 nM
- koff [6]: 0.0205 s⁻¹
- kon [6]: 1e+08 M⁻¹ s⁻¹
B15: STLM204 (antibody, V domains shown)
VH: B2 VH
VL: B2 VL with A43V, F83V
notes: C2494 HFA mAb: VH STLH194 + VL STLL273 (A20)

- Kd [5]: 0.473 nM
- koff [5]: 0.0159 s⁻¹
- kon [5]: 3.37e+07 M⁻¹ s⁻¹
- Kd [6]: 1.1 nM
- koff [6]: 0.11 s⁻¹
- kon [6]: 1e+08 M⁻¹ s⁻¹
B16: STLM187 (antibody, V domains shown)
VH: B2 VH with E1Q, T17S, I20V, Q38R, E62P, G66D, I70M, A72E
VL: B2 VL with M94L
notes: C2494 HFA mAb: VH STLH195 (IGHV1-24*01) + VL STLL280 (O12b)
